Test results taken from US11286278B2, “DPEP-1 binding agents and methods of use” (Arch Biopartners, Inc., priority 2018, dated 2022).
Ends that are not written are not given here. * marks the point of attachment. Biotin = O=C1N[C@H]2[C@H](CS[C@H]2CCCCC(=O)*)N1

What was measured:
[1] = biological target: T1, human membrane dipeptidase (DPEP-1) (Homo sapiens, UniProt P16444); assay: Membrane dipeptidase enzyme activity assay (Gly-D-Phe, fluorometric); type: biochemical; conditions: lysates of transfected Cos1 cells, substrate Gly-D-Phe
T1 construct: expressed in transfected cells; host or cells: Cos-1
T1 sequence (P16444 17-385): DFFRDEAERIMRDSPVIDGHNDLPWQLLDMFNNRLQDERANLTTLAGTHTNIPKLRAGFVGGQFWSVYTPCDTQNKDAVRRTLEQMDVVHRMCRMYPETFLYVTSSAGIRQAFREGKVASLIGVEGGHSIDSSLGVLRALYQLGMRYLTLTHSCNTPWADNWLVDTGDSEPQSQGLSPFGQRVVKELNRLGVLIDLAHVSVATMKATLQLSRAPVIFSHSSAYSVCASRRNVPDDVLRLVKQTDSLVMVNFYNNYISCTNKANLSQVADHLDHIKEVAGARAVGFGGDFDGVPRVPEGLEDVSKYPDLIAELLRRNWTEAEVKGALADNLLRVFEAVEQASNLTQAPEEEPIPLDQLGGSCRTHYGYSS
Protocol: 24 hours after transfection, DPEP-1 expressing cells weer reseeded on 24 well collagen coated (neutralized) plates and allowed to grow for 24 hours at 37° C. […] Cells were blocked with FBS/NBSA/Tween in PBS for 30 minutes on ice. […] After incubation, cells were washed with PBS and stained with DAPI for 4 minutes on ice. Cells were again washed with PBS, fixed using 4% paraformaldehyde and immunofluoresence microscopy was performed to assess binding. Proteins from human DPEP-1 transfected cells were isolated after 48 hours using octyl-glucoside/RIPA in the absence of protease inhibitors. […] Proteins from transfected cells were isolated after 48 hours using octyl-glucoside/RIPA lysis buffer and western blot analysis was performed to assess DPEP-1 expression using DPEP-1 antibody (Sigma).
The fluorescence signal generated from the conversion of D-Phe to […] in the presence of D-aminoacidoxidase and peroxidase was measured using a fluorescence plate reader.
Proteins from DPEP-1 transfected cells were isolated after 48 hours using octyl-glucoside/RIPA lysis buffer and western blot analysis was performed to assess DPEP-1 expression using a DPEP-1 specific antibody (Proteintech) (FIG. 24B).

DPEP1 = biological target: T2, DPEP1 (Homo sapiens, UniProt P16444); assay: Alanine-substituted peptide binding to DPEP1 transfected HEK 293 cells, immunofluorescence; design: expressed in transfected cells; host or cells: HEK 293; conditions: test peptide at 5 uM, 1 hr at room temperature
T2 sequence (P16444 17-385): T1 sequence (P16444 17-385)
Protocol: […] were transfected with DPEP1 or DPEP2, two days prior to assay and were plated onto collagen-coated coverslips one day prior. Then fixed 10 min with 3.7% formaldehyde in PBS, washed 3 times in PBS, incubated with Alanine-substituted test peptide at 5 uM each, 1 hr at room temperature, washed twice with PBS gently, incubated with 1/50 Alexa 568-straptavadin in PBS, 1 hr at room temperature, washed twice with PBS gently and added DAPI Mounted with DAKO Fluorescent mounting media and evaluated for binding under fluorescence microscope.

[2] = Circular dichroism spectroscopy of LSALT peptide and analogs; type: physicochemical; design: Inducible Helical Structure (50% TFE-benign): unit not given here; conditions: for Inducible Helical Structure (50% TFE-benign) / [θ] (222 nm) 50% TFE / % Inducible Helical Structure (Inducible/50% TFE) / [θ] (222 nm) Benign (No TFE): 222 nm; for % Inducible Helical Structure (Inducible/50% TFE): 50% TFE is considered 100% folded; for [θ] (222 nm) Benign (No TFE): benign buffer (100 mM KCl, 50 mM Na2HPO4/NaH2PO4, pH 7.0)
Protocol: The physical and chemical properties of protein therapeutics are critical factors that influence the ease of manufacturing, development and clinical use. The LSALT peptide was evaluated in terms of its solubility, aggregation state and stability using a variety of biophysical methods.
In circular dichroism spectroscopy the ellipticity value at 222 nm is a measure of a-helical content. 50% trifluoroethanol is a hydrophobic solvent and induces α-helical structure if the structure can be induced. All of the peptides tested can be induced to adopt α-helical structure. The peptides are random coils in benign conditions (non-denaturing). The buffer conditions were aqueous phosphate, pH 7.0.

inhibition of human DPEP1 enzymatic activity [1]	inhibition of human DPEP1 enzymatic activity ([1]; listed as cilastatin)	inhibition of human DPEP1 enzymatic activity ([1]; listed as penicillamine)	Molecule	binding to DPEP-1 by immunofluorescence (alanine mutants) (DPEP1)	Inducible Helical Structure (50% TFE-benign) [2]	[θ] (222 nm) 50% TFE [2]	% Inducible Helical Structure (Inducible/50% TFE) [2] [%]	[θ] (222 nm) Benign (No TFE) [2]	inducible α-helical structure (in words) ([2]; 50% trifluoroethanol)
inhibited the activity	can be inhibited	–	CC1(C)C[C@@H]1C(=O)N/C(=C\CCCCSC[C@H](N)C(=O)O)C(=O)O [Cilastatin]	–	–	–	–	–	–
inhibited the activity	–	can be inhibited	CC(C)(S)[C@@H](N)C(=O)O [Penicillamine]	–	–	–	–	–	–
–	–	–	ASALTPSPSWLKYKAL [Pos 1]	decreased and increased binding to DPEP-1	–	–	–	–	–
–	–	–	Ac-LSALTPSPSWLKYKAL [Peptide A17]	–	17,615	−74897	23.5	−57282	–
–	–	–	Ac-LSALTPSPSWLKYKAL-amide (Ac-LSALTPSPSWLKYKAL-NH2) [Peptide A18]	–	40,612	−78951	51.4	−38340	–
–	–	–	Bio-ASALTPSPSWLKYKAL (Biotin-ASALTPSPSWLKYKAL) [Peptide A1]	–	37,752	−119807	31.5	−82054	–
–	–	–	Bio-LAALTPSPSWLKYKAL [Peptide A2]	–	51,374	−117502	43.7	−66128	significantly enhances inducible α-helical structure
–	–	–	Bio-LSAATPSPSWLKYKAL [Peptide A4]	–	16,397	−76916	21.3	−60519	–
–	–	–	Bio-LSALAPSPSWLKYKAL [Peptide A5]	–	29,755	−79198	37.6	−49443	–
–	–	–	Bio-LSALTGSPSWLKYKAL [Peptide A6]	–	28,435	−70926	40.1	−42491	–
–	–	–	Bio-LSALTPAPSWLKYKAL [Peptide A7]	–	20,988	−70198	29.9	−49209	–
–	–	–	Bio-LSALTPSASWLKYKAL [Peptide A8]	–	9,444	−42335	22.3	−32890	–
–	–	–	Bio-LSALTPSPAWLKYKAL [Peptide A9]	–	13,436	−62889	21.4	−49453	–
–	–	–	Bio-LSALTPSPSALKYKAL (Biotin-LSALTPSPSALKYKAL) [Peptide A10]	–	9,583	−35792	26.8	−26209	–
–	–	–	Bio-LSALTPSPSWAKYKAL (Biotin-LSALTPSPSWAKYKAL) [Peptide A11]	–	21,682	−80196	27.0	−58514	–
–	–	–	Bio-LSALTPSPSWLAYKAL (Biotin-LSALTPSPSWLAYKAL) [Peptide A12]	–	8,451	−36742	23.0	−28292	–
–	–	–	Bio-LSALTPSPSWLKAKAL (Biotin-LSALTPSPSWLKAKAL) [Peptide A13]	–	31,488	−80841	39.0	−49352	–
–	–	–	Bio-LSALTPSPSWLKYAAL (Biotin-LSALTPSPSWLKYAAL) [Peptide A14]	–	14,068	−39862	35.3	−25794	–
–	–	–	Bio-LSALTPSPSWLKYKAA (Biotin-LSALTPSPSWLKYKAA) [Peptide A16]	–	11,796	−37070	31.8	−25275	–
–	–	–	Bio-LSALTPSPSWLKYKAL-amide (Biotin-LSALTPSPSWLKYKAL-NH2) [Peptide A19]	–	77,996	−153947	50.7	−75952	–
–	–	–	Bio-LSALTPSPSWLKYKGL (Biotin-LSALTPSPSWLKYKGL) [Peptide A15]	–	23,450	−92167	25.4	−68717	–
–	–	–	Bio-LSGLTPSPSWLKYKAL [Peptide A3]	–	18,865	−68580	27.5	−49714	–
–	–	–	LSALAPSPSWLKYKAL [Pos 5]	decreased and increased binding to DPEP-1	–	–	–	–	–
–	–	–	LSALTPSPSALKYKAL [Pos 10]	decreased and increased binding to DPEP-1	–	–	–	–	–
–	–	–	LSALTPSPSWLAYKAL [Pos 12]	decreased and increased binding to DPEP-1	–	–	–	–	–
